Data published in patent publication US20230158141A1 (YAFEI SHANGHAI BIOLOG MEDICINE SCIENCE AND TECHNOLOGY, published 2023).
Like-named read-outs stand apart in the source and are kept apart here.

Columns and labels:
[1] = biological target: T1, human Fc tagged PD-1 protein (Sino Biological) (human, UniProt Q15116 25-167); experiment: ELISA, EC50 fold change; S47 on the Cys
T1 construct: bought; also called Fc tagged human PD-1 protein

IL2Rβ-Fc = biological target: T2, IL2Rβ-Fc (UniProt P14784 27-239, limits assumed); experiment: ELISA, against wild type IL2
T2 construct: also called IL2Rb; not shown: Fc part, not described
T2 sequence (looked up): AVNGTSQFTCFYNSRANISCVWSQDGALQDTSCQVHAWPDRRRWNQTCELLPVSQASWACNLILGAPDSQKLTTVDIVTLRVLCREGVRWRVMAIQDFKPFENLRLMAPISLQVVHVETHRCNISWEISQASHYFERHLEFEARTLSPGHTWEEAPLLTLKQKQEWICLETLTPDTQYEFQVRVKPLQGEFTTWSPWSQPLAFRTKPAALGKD

His tagged VEGF protein = His tagged VEGF protein (UniProt P15692-4 27-191, limits assumed); experiment: ELISA, His tagged VEGF protein
Chain of His tagged VEGF protein (P15692 other isoform, or with tags, fused parts or gaps limits assumed): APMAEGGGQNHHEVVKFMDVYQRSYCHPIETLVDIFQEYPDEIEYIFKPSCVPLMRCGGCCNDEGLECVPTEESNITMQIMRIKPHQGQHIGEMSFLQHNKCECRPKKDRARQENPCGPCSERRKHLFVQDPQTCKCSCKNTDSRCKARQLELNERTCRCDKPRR

PD-1 [2] = biological target: PD-1 (UniProt Q15116 25-167, limits assumed); experiment: ELISA, OD mutant/OD WT; ↓=less than 70%
PD-1 [3] = biological target: T3, PD-1 (UniProt Q15116 25-167, limits assumed); experiment: ELISA, EC50 fold change; S47 on the Cys
T3 construct: also called PD-1 antigen

mouse CTLA-4 protein = mouse CTLA-4 protein (mouse, UniProt P09793 36-162, limits assumed); experiment: ELISA, TMEAbody against WT 9D9
mouse PD-1 protein = biological target: T4, mouse PD-1 protein (mouse, UniProt Q02242 25-167, limits assumed); experiment: ELISA, TMEAbody against WT J43v2
T4 sequence (looked up): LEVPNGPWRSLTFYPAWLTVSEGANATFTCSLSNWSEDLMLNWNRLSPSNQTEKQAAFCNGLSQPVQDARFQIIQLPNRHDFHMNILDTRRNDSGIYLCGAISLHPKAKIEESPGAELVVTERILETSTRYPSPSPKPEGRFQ

CTLA-4 [4] = biological target: T5, CTLA-4 (UniProt P16410 36-162, limits assumed); experiment: ELISA; S47 on the Cys
T5 construct: also called CTLA-4 protein
T5 sequence (P16410 36-162 limits assumed): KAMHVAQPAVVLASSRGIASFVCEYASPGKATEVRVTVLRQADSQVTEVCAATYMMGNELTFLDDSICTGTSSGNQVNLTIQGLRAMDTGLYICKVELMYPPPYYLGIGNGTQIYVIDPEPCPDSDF

CTLA-4 [5] = biological target: T5, CTLA-4; experiment: ELISA; R4-1 on the Cys
CTLA-4 [6] = biological target: T5, CTLA-4; experiment: ELISA; R4-1 on the Cys; remark: listed apart in the source
[7] = biological target: T6, human CTLA-4 Fc fusion protein (R&D systems) (human, UniProt P16410 37-162); experiment: ELISA, fold change of EC50; S47 on the Cys
T6 construct: bought
T6 sequence (P16410 37-162 limits assumed): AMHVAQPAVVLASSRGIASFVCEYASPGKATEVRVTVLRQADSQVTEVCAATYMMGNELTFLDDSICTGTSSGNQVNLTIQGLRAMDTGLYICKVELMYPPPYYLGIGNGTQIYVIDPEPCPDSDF

[8] = biological target: T6, human CTLA-4 Fc fusion protein (R&D …); experiment: receptor blocking ELISA against biotinylated B7-1 or B7-2; TMEAbody (S47 conjugate)

T1 sequence (Q15116 25-167 limits assumed): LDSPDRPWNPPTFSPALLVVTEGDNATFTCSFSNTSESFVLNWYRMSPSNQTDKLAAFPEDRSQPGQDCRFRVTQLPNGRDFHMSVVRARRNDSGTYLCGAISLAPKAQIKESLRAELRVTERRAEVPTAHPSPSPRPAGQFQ

B1: Pem-se007 (Pembrolizumab light chain Gly28Cys) (antibody, human IgG4 S228P, kappa, V domains shown)
VH: QVQLVQSGVEVKKPGASVKVSCKASGYTFTNYYMYWVRQAPGQGLEWMGGINPSNGGTNFNEKFKNRVTLTTDSSTTTAYMELKSLQFDDTAVYYCARRDYRFDMGFDYWGQGTTVTVSS
VL: EIVLTQSPATLSLSPGERATLSCRASKCVSTSGYSYLHWYQQKPGQAPRLLIYLASYLESGVPARFSGSGSGTDFTLTISSLEPEDFAVYYCQHSRDLPLTFGGGTKVEIKR
modifications: Cys at 28 carries the group named in the row
Blocking efficiency of S47 [1]: 8 fold

B2: chemically modified IL2 Arg38Asp/Glu61Arg with Lys9 and Lys76 conjugated with R4-7 (other)
chain: APASSTKCTQLQLEHLLLDLQMILNGINNYKNPKLTDMLTFKFYMPKKATELKHLQCLERELKPLEEVLNLAQSCNFHLRPRDLISNINVIVLELKGSETTFMCEYADETATIVEFLNRWITFSQSIISTLT
modifications: R4-7 on Cys 9 and Cys 76
notes: also called a new chemically modified IL2
fold increase of binding (IL2Rβ-Fc): 1.35 fold

B3: Beva-se001 conjugated to S47 (antibody, human IgG1, kappa, V domains shown)
VH: EVQLVESGGGLVQPGGSLRLSCAASGYTFTNYGMNWVRQAPGKGLEWVGWINTYTGEPTYAADFCRRFTFSLDTSKSTAYLQMNSLRAEDTAVYYCAKYPHYYGSSHWYFDVWGQGTLVTVSS
VL: DIQMTQSPSSLSASVGDRVTITCSASQDISNYLNWYQQKPGKAPKVLIYFTSSLHSGVPSRFSGSGSGTDFTLTISSLQPEDFATYYCQQYSTVPWTFGQGTKVEIKR
modifications: S47 on Cys 65
notes: Bevacizumab mutant
Blocking efficiency of S47 (His tagged VEGF protein): 9 fold

B4: anti-PD-1 antibody 2 light chain Y32C (antibody, human IgG4 S228P, kappa, V domains shown)
VH: QVQLVESGGGVVQPGRSLRLDCKASGITFSNSGMHWVRQAPGKGLEWVAVIWYDGSKRYYADSVKGRFTISRDNSKNTLFLQMNSLRAEDTAVYYCATNDDYWGQGTLVTVSS
VL: EIVLTQSPATLSLSPGERATLSCRASQSVSSCLAWYQQKPGQAPRLLIYDASNRATGIPARFSGSGSGTDFTLTISSLEPEDFAVYYCQQSSNWPRTFGQGTKVEIKR
binding activity vs wild type (PD-1 [2]): < 70%

B5: Niv-se007 (Nivolumab light chain Ser91Cys) (antibody, human IgG4 S228P, kappa, V domains shown)
VH: QVQLVESGGGVVQPGRSLRLDCKASGITFSNSGMHWVRQAPGKGLEWVAVIWYDGSKRYYADSVKGRFTISRDNSKNTLFLQMNSLRAEDTAVYYCATNDDYWGQGTLVTVSS
VL: EIVLTQSPATLSLSPGERATLSCRASQSVSSYLAWYQQKPGQAPRLLIYDASNRATGIPARFSGSGSGTDFTLTISSLEPEDFAVYYCQQCSNWPRTFGQGTKVEIKR
modifications: Cys at 91 carries the group named in the row
Blocking efficiency of S47 (PD-1 [3]): 25 fold

B6: 9D9 TMEAbody (anti-mouse CTLA-4 antibody 9D9, Tyr54 on LC) (antibody, mouse IgG2b, kappa)
heavy: EAKLQESGPVLVKPGASVKMSCKASGYTFTDYYMNWVKQSHGKSLEWIGVINPYNGDTSYNQKFKGKATLTVDKSSSTAYMELNSLTSEDSAVYYCARYYGSWFAYWGQGTLITVSTAKTTPPSVYPLAPGCGDTTGSSVTLGCLVKGYFPESVTVTWNSGSLSSSVHTFPALLQSGLYTMSSSVTVPSSTWPSQTVTCSVAHPASSTTVDKKLEPSGPISTINPCPPCKECHKCPAPNLEGGPSVFIFPPNIKDVLMISLTPKVTCVVVDVSEDDPDVQISWFVNNVEVHTAQTQTHREDYNSTIRVVSTLPIQHQDWMSGKEFKCKVNNKDLPSPIERTISKIKGLVRAPQVYILPPPAEQLSRKDVSLTCLVVGFNPGDISVEWTSNGHTEENYKDTAPVLDSDGSYFIYSKLNMKTSKWEKTDSFSCNVRHEGLKNYYLKKTISRSPGK
light: DIVMTQTTLSLPVSLGDQASISCRSSQSIVHSNGNTYLEWYLQKPGQSPKLLICKVSNRFSGVPDRFSGSGSGTDFTLKISRVEAEDLGVYYCFQGSHVPYTFGGGTKLEIKRADAAPTVSIFPPSSEQLTSGGASVVCFLNNFYPKDINVKWKIDGSERQNGVLNSWTDQDSKDSTYSMSSTLTLTKDEYERHNSYTCEATHKTSTSPIVKSFNRNEC
modifications: functional moiety on Cys 54 (which R1-R2-R3-R4 is not stated)
notes: mIgG2b isotype
blocking efficiency (fold) (mouse CTLA-4 protein): 26 fold

B7: J43v2 TMEAbody (anti-mouse PD-1 antibody J43v2, Ser95 on LC) (antibody, mouse IgG2a, V domains shown)
VH: EVRLLESGGGLVKPEGSLKLSCVASGFTFSDYFMSWVRQAPGKGLEWVAHIYTKSYNYATYYSGSVKGRFTISRDDSRSMVYLQMNNLRTEDTATYYCTRDGSGYPSLDFWGQGTQVTVSS
VL: YELTQPPSASVNVGETVKITCSGDQLPKYFADWFHQRSDQTILQVIYDDNKRPSGIPERISGSSSGTTATLTIRDVRAEDEGDYYCFSGYVDSDCKLYVFGSGTQLTVLG
modifications: functional moiety on Cys 95 (which R1-R2-R3-R4 is not stated)
notes: Heavy chain re-formatted into mouse IgG2a
blocking efficiency (fold) (mouse PD-1 protein): 35 fold

B8: Ipi-se009 (Ipilimumab light chain Ser54Cys, Kabat L53) (antibody, human IgG1, kappa, V domains shown)
VH: QVQLVESGGGVVQPGRSLRLSCAASGFTFSSYTMHWVRQAPGKGLEWVTFISYDGNNKYYADSVKGRFTISRDNSKNTLYLQMNSLRAEDTAIYYCARTGWLGPFDYWGQGTLVTVSS
VL: not shown
modifications: Cys at 54 (Kabat L53) carries the group named in the row
Activity after S47 (40 kD) blocking (CTLA-4 [4]): 5% | Binding activity (CTLA-4 [5]): 98% | Binding activity (CTLA-4 [6]): 98% | Blocking efficiency after conjugation with S47 [7]: 22 fold | Blocking efficiency (RBA), fold change of IC50 [8]: 18 fold
